pEC50, pIC50: −log10 of the molar value.
What was measured:
[1] = molecular target: HER2 (human) (UniProt P04626); assay: ELISA
[2] = molecular target: PD-1 (human) (UniProt Q15116); assay: competition ELISA; blocking PD-1/PD-L2
Sequence of PD-1 (human) (Q15116 25-167): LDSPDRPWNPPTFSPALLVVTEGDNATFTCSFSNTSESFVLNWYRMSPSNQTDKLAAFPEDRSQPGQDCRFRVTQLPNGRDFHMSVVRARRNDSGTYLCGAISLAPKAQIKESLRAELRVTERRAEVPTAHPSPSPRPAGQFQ

pEC50 [1]: 9.92
pIC50 [2]: < 7.70
Substance: HER2

Reference: patent US20210032343A1
